1 molecule from patent US20250208146A1 (UNIVERSITY OF FLORIDA RESEARCH FOUNDATION, published 2025) can be followed below.

The target of test [1] is T1, Z Alpha-1 Antitrypsin (Z-AAT) (human, UniProt P01009 25-418).
T1 construct: In the assays the protein was Z-AAT purified from plasma of Pi*ZZ patients, or Z-AAT in Z/Z plasma; also called Z-variant of alpha-1 antitrypsin; Z-AAT protein variant
Put plainly: BLI (Octet): antibody from hybridoma supernatant loaded on the biosensor at 15ug/mL, ZAAT 500nM in HEPES buffer, association 300.81 s, dissociation 800.02 s, one concentration; column head kdis(1/s); Full R^2 0.7794.

Test [2] has as its target T1, Z Alpha-1 Antitrypsin (Z-AAT). As to the kind of experiment: BLI (Octet): antibody from hybridoma supernatant loaded on the biosensor at 15ug/mL, ZAAT 500nM in HEPES buffer, association 300.81 s, dissociation 800.02 s, one concentration; Full R^2 0.7794.

T1 sequence (P01009 25-418 E366K limits assumed): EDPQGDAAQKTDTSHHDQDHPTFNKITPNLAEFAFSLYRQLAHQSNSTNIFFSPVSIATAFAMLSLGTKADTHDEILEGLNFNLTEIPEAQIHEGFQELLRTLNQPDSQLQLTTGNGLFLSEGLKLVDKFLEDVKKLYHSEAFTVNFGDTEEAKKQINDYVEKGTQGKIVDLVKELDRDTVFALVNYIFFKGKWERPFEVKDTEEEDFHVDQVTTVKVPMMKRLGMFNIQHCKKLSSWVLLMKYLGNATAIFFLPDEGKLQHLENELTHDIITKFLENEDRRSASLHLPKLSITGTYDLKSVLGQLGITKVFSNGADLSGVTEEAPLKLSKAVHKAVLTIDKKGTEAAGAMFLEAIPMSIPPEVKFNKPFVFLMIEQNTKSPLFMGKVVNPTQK

B1: HL2440 (antibody, V domains shown)
VH: QVQLQQPGAELVKPGASVKMSCKASGYTFTSYWITWVKQRPGQGLEWIGDIYPGSGSTNYNEKFKNKATLTVDTSSSTAYMQLSSLTSEDSAVYYCAAAVKGFAYWGQGTLVTVSA
VL: DIVMTQSHKFMSTSVGDRVSITCKASQDVGTAVAWYQQKPGQSPKLLIYWASTRHTGVPDRFTGSGSGTDFTLTISNVQSEDLADYFCQQYSTYPLTFGSGTKLEIK
notes: Mouse monoclonal from a hybridoma, used as supernatant or purified; also called Z-specific antibody HL2440; ZAAT mAb
For B1, the koff in test [1] is 0.00125 s⁻¹. In test [2], this molecule registered a dissociation constant (Kd) of 37.6 nM and a kon of 33200 M⁻¹ s⁻¹.
